Legend:
O8-bN = biological target: T1, O8-bN; assay: two-hybrid library CCNG1;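 also: natural log of median RNA to DNA barcode read ratio; higher means stronger binding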
T1 chain: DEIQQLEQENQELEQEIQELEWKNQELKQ

O5-bN = biological target: T2, O5-bN; assay: two-hybrid library CCNG1;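 also: natural log of median RNA to DNA barcode read ratio; higher means stronger binding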
T2 chain: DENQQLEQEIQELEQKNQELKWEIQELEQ

O12-bN = biological target: T3, O12-bN; assay: two-hybrid library CCNG1;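 also: natural log of median RNA to DNA barcode read ratio; higher means stronger binding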
T3 chain: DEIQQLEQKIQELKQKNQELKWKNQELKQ

O2-bN = biological target: T4, O2-bN; assay: two-hybrid library CCNG1;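 also: natural log of median RNA to DNA barcode read ratio; higher means stronger binding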
T4 chain: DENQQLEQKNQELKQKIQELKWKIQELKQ

O14-bN = biological target: T5, O14-bN; assay: two-hybrid library CCNG1;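 also: natural log of median RNA to DNA barcode read ratio; higher means stronger binding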
T5 chain: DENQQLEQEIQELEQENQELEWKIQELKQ

O6-bN = biological target: T6, O6-bN; assay: two-hybrid library CCNG1;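 also: natural log of median RNA to DNA barcode read ratio; higher means stronger binding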
T6 chain: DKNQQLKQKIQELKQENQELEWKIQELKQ

O9-bN = biological target: T7, O9-bN; assay: two-hybrid library CCNG1
T7 chain: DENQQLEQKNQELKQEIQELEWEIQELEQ

O3-bN = biological target: T8, O3-bN; assay: two-hybrid library CCNG1
T8 chain: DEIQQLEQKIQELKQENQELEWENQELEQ

O13-bN = biological target: T9, O13-bN; assay: two-hybrid library CCNG1
T9 chain: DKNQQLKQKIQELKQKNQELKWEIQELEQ

O4-bN = biological target: T10, O4-bN; assay: two-hybrid library CCNG1
T10 chain: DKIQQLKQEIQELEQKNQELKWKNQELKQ

O7-bN = biological target: T11, O7-bN; assay: two-hybrid library CCNG1
T11 chain: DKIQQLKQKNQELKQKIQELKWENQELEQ

O15-bN = biological target: T12, O15-bN; assay: two-hybrid library CCNG1
T12 chain: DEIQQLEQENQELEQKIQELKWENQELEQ

O16-bN = biological target: T13, O16-bN; assay: two-hybrid library CCNG1
T13 chain: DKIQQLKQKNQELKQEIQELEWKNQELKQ

P3bHq = biological target: T14, P3bHq; assay: two-hybrid library CCNG1
T14 chain: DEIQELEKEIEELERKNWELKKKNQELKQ

P9bHq = biological target: T15, P9bHq; assay: two-hybrid library CCNG1
T15 chain: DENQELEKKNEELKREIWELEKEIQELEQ

P2bHq = biological target: T16, P2bHq; assay: two-hybrid library CCNG1
T16 chain: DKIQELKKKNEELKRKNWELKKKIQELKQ

P4bHq = biological target: T17, P4bHq; assay: two-hybrid library CCNG1
T17 chain: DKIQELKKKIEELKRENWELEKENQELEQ

P5bHq = biological target: T18, P5bHq; assay: two-hybrid library CCNG1
T18 chain: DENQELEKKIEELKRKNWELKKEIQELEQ

P8bHq = biological target: T19, P8bHq; assay: two-hybrid library CCNG1
T19 chain: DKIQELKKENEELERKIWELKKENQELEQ

P7bHq = biological target: T20, P7bHq; assay: two-hybrid library CCNG1
T20 chain: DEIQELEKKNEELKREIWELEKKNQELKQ

P6bHq = biological target: T21, P6bHq; assay: two-hybrid library CCNG1
T21 chain: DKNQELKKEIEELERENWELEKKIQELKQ

P1bHq = biological target: T22, P1bHq; assay: two-hybrid library CCNG1
T22 chain: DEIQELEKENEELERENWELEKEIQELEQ

4H3277-bA = biological target: T23, 4H3277-bA; assay: two-hybrid library CCNG1
T23 chain: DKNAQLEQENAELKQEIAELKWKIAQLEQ

4H492-bA = biological target: T24, 4H492-bA; assay: two-hybrid library CCNG1
T24 chain: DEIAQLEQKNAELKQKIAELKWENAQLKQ

4H348-bA = biological target: T25, 4H348-bA; assay: two-hybrid library CCNG1
T25 chain: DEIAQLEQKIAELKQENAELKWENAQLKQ

4H2588-bA = biological target: T26, 4H2588-bA; assay: two-hybrid library CCNG1
T26 chain: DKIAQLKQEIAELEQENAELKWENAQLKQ

4H3057-bA = biological target: T27, 4H3057-bA; assay: two-hybrid library CCNG1
T27 chain: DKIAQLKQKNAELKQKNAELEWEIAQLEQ

4H319-bA = biological target: T28, 4H319-bA; assay: two-hybrid library CCNG1
T28 chain: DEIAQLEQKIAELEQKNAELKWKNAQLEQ

4H2503-bA = biological target: T29, 4H2503-bA; assay: two-hybrid library CCNG1
T29 chain: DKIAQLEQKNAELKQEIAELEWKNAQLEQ

4H2473-bA = biological target: T30, 4H2473-bA; assay: two-hybrid library CCNG1
T30 chain: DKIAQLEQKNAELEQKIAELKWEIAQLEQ

4H2839-bA = biological target: T31, 4H2839-bA; assay: two-hybrid library CCNG1
T31 chain: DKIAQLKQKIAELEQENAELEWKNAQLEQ

4H477-bA = biological target: T32, 4H477-bA; assay: two-hybrid library CCNG1
T32 chain: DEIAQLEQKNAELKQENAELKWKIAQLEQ

P11A-bS = biological target: T33, P11A-bS; assay: two-hybrid library CCNG1
T33 chain: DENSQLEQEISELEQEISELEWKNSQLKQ

4H2915-bA = biological target: T34, 4H2915-bA; assay: two-hybrid library CCNG1
T34 chain: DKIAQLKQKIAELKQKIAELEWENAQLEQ

4H40-bA = biological target: T35, 4H40-bA; assay: two-hybrid library CCNG1
T35 chain: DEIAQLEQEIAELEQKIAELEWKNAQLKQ

4H2717-bA = biological target: T36, 4H2717-bA; assay: two-hybrid library CCNG1
T36 chain: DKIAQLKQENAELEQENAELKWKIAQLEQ

4H741-bA = biological target: T37, 4H741-bA; assay: two-hybrid library CCNG1
T37 chain: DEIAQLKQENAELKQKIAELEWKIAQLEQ

4H2692-bA = biological target: T38, 4H2692-bA; assay: two-hybrid library CCNG1
T38 chain: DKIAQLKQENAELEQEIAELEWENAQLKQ

4H2619-bH = biological target: T39, 4H2619-bH; assay: two-hybrid library CCNG1
T39 chain: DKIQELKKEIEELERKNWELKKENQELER

4H363-bH = biological target: T40, 4H363-bH; assay: two-hybrid library CCNG1
T40 chain: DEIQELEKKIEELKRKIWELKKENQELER

4H2568-bH = biological target: T41, 4H2568-bH; assay: two-hybrid library CCNG1
T41 chain: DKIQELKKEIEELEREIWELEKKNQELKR

4H3189-bA = biological target: T42, 4H3189-bA; assay: two-hybrid library CCNG1
T42 chain: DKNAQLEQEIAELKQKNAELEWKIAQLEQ

4H344-bH = biological target: T43, 4H344-bH; assay: two-hybrid library CCNG1
T43 chain: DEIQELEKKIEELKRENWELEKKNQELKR

4H2745-bH = biological target: T44, 4H2745-bH; assay: two-hybrid library CCNG1
T44 chain: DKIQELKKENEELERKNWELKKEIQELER

4H470-bH = biological target: T45, 4H470-bH; assay: two-hybrid library CCNG1
T45 chain: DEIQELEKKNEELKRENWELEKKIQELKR

4H3907-bH = biological target: T46, 4H3907-bH; assay: two-hybrid library CCNG1
T46 chain: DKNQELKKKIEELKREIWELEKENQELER

4H3961-bH = biological target: T47, 4H3961-bH; assay: two-hybrid library CCNG1
T47 chain: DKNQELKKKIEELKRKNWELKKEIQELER

P6SC2 = biological target: T48, P6SC2; assay: two-hybrid library CC1; conditions: mean of both orientations
T48 chain: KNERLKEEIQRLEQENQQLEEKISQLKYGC

P5SC2 = biological target: T49, P5SC2; assay: two-hybrid library CC1; conditions: mean of both orientations
T49 chain: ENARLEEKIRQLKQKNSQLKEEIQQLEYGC

P8mS = biological target: T50, P8mS; assay: two-hybrid library CC1; conditions: mean of both orientations
T50 chain: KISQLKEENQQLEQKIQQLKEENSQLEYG

P6mS = biological target: T51, P6mS; assay: two-hybrid library CC1; conditions: mean of both orientations
T51 chain: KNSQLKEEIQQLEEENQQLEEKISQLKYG

P3mS = biological target: T52, P3mS; assay: two-hybrid library CC1; conditions: mean of both orientations
T52 chain: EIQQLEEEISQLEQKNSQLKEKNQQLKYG

P4mS = biological target: T53, P4mS; assay: two-hybrid library CC1; conditions: mean of both orientations
T53 chain: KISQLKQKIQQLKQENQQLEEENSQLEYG

P9 = biological target: T54, P9; assay: two-hybrid library CC1; conditions: mean of both orientations
T54 chain: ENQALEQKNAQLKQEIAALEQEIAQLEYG

P3 = biological target: T55, P3; assay: two-hybrid library CC1
T55 chain: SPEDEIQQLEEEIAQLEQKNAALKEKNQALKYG

P6SC1 = biological target: T56, P6SC1; assay: two-hybrid library CC1; conditions: mean of both orientations
T56 chain: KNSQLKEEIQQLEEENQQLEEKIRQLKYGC

P4 = biological target: T57, P4; assay: two-hybrid library CC1; conditions: mean of both orientations
T57 chain: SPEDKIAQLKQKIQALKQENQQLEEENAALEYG

P6 = biological target: T58, P6; assay: two-hybrid library CC1; conditions: mean of both orientations
T58 chain: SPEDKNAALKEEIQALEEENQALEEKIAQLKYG

P8 = biological target: T59, P8; assay: two-hybrid library CC1; conditions: mean of both orientations
T59 chain: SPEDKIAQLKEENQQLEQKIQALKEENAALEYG

P5mS = biological target: T60, P5mS; assay: two-hybrid library CC1; conditions: mean of both orientations
T60 chain: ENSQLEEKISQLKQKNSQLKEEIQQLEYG

P5SC1 = biological target: T61, P5SC1; assay: two-hybrid library CC1; conditions: mean of both orientations
T61 chain: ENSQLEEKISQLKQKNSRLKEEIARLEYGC

P7 = biological target: T62, P7; assay: two-hybrid library CC1; conditions: mean of both orientations
T62 chain: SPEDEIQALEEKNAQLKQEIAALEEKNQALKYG

P7mS = biological target: T63, P7mS; assay: two-hybrid library CC1; conditions: mean of both orientations
T63 chain: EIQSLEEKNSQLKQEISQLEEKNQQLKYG

P5 = biological target: T64, P5; assay: two-hybrid library CC1; conditions: mean of both orientations
T64 chain: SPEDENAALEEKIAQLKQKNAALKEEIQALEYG

O11-bN = biological target: T65, O11-bN; assay: two-hybrid library CCNG1
T65 chain: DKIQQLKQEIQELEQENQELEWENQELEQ

DEIQQLEQKIQELKQKNQELKWKNQELKQ [O12-bN]
interaction score (O8-bN): 0.0745
interaction score (O5-bN): -2.82
interaction score (O12-bN): -0.0253
interaction score (O2-bN): -0.846
interaction score (O14-bN): -0.704
interaction score (O6-bN): 0.155
interaction score (O9-bN): -0.349
interaction score (O3-bN): 0.565
interaction score (O13-bN): -0.316
interaction score (O4-bN): -0.33
interaction score (O7-bN): -0.201
interaction score (O15-bN): -0.511
interaction score (O16-bN): -0.487

DEIQELEKENEELERENWELEKEIQELEQ [P1bHq]
interaction score (P3bHq): -1.03
interaction score (P9bHq): -1.78
interaction score (P2bHq): 1.87
interaction score (P4bHq): -0.52
interaction score (P5bHq): -0.887
interaction score (P8bHq): -0.272
interaction score (P7bHq): -0.288
interaction score (P6bHq): -0.273
interaction score (P1bHq): -0.606

DKIAQLEQKNAELEQKIAELKWEIAQLEQ [4H2473-bA]
interaction score (4H3277-bA): -1.53
interaction score (4H492-bA): -1.09
interaction score (4H348-bA): -1.44
interaction score (4H2588-bA): -1.02
interaction score (4H3057-bA): 0.511
interaction score (4H319-bA): -0.981
interaction score (4H2503-bA): 0.82
interaction score (4H2473-bA): 0.144
interaction score (4H2839-bA): -0.648
interaction score (4H477-bA): -0.946
interaction score (P11A-bS): -0.676
interaction score (4H2915-bA): 0.904
interaction score (4H40-bA): -0.325
interaction score (4H2717-bA): -0.42
interaction score (4H741-bA): -1.42
interaction score (4H2692-bA): 0.426

DKIQELKKEIEELEREIWELEKKNQELKR [4H2568-bH]
interaction score (4H2619-bH): 1.65
interaction score (4H363-bH): 1.72
interaction score (4H2568-bH): 2.17
interaction score (4H3189-bA): 0.615
interaction score (4H344-bH): 0.802
interaction score (4H2745-bH): -0.189
interaction score (4H470-bH): -1.26
interaction score (4H3907-bH): 1.31
interaction score (4H3961-bH): 2.42

SPEDEIQQLEEEIAQLEQKNAALKEKNQALKYG [P3]
interaction score (P6SC2): -2.04
interaction score (P5SC2): -2.4
interaction score (P8mS): -2.7
interaction score (P6mS): -2.79
interaction score (P3mS): -2.89
interaction score (P4mS): 0.336
interaction score (P9): -2.09
interaction score (P3): -2.65
interaction score (P6SC1): -2.57
interaction score (P4): 0.154
interaction score (P6): -2.59
interaction score (P8): -2.6
interaction score (P5mS): -2.66
interaction score (P5SC1): -2.58
interaction score (P7): -2.61
interaction score (P7mS): -2.58
interaction score (P5): -2.66

DKIQQLKQEIQELEQENQELEWENQELEQ [O11-bN]
interaction score (O8-bN): -1.26
interaction score (O5-bN): -1.06
interaction score (O12-bN): 0.971
interaction score (O2-bN): -0.23
interaction score (O14-bN): -0.639
interaction score (O6-bN): -0.927
interaction score (O9-bN): -0.813
interaction score (O3-bN): -0.437
interaction score (O13-bN): -0.808
interaction score (O4-bN): 0.401
interaction score (O7-bN): -1.3
interaction score (O15-bN): -0.577
interaction score (O16-bN): -1.91
interaction score (O11-bN): -0.191

Source: publication PMC10397247
